Laboratory results from patent publication US20230265179A1 (TWIST BIOSCIENCE, published 2023).
Where a chain is given by its changes, count along the chain named.

T1: CD40L (UniProt P29965 1-261, limits assumed)
T1 construct: whole, on cells; also called cytokine over-expressing Expi293 cells (CD40L)
T1 sequence (looked up): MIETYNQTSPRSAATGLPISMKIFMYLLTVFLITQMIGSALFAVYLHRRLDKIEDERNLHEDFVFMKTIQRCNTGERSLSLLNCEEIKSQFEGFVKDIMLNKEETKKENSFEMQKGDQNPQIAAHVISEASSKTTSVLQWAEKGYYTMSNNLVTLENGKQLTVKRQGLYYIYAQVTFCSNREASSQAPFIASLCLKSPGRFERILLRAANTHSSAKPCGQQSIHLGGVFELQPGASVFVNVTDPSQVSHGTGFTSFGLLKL

B1: CD40L-363 (antibody, V domains shown)
VH: EVQLLESGGGLVQPGGSLRLSCAASGFTFSDYDMSWVRQAPGKGLEWVSGISGSGATTYYADSVKGRFTISRDNSKNTLYLQMNSLRAEDTAVYYCARDSSGSYYYPLDYWGQGTLVTVSS
VL: DIQMTQSPSSLSASVGDRVTITCRTSQSISSYANWYQQKPGKAPKLLIYGASRLESGVPSRFSGSGSGTDFTLTISSLQPEDFATYYCQQTYSTPWTFGGGTKVGIK
B2: CD40L-341 (antibody, V domains shown)
VH: EVQLLESGGGLVQPGGSLRLSCAASGFTFRSYAMTWVRQAPGKGLEWVSAISGSGDRTYYGDSVKGRFTISRDNSKNTLYLQMNSLRAEDTAVYYCARIARSEDFWSGYYTDFDFDYWGQGTLVTVSS
VL: DIQMTQSPSSLSASVGDRVTITCRASQSISTYLNWYQQKPGKAPKLLIYRASTLQSGVPSRFSGSGSGTDFTLTISSLQPEDFATYYCQQSYSNPPTFGQGTKVEIK
B3: CD40L-355 (antibody, V domains shown)
VH: EVQLLESGGGLVQPGGSLRLSCAASGFIFSNYDMSWVRQAPGKGLEWVSGISGSGGSTSYADSVKGRFTISRDNSKNTLYLQMNSLRAEDTAVYYCARHGGYNPYGLDYWGQGTLVTVSS
VL: B2 VL with S9F, S28N, S30L, R50G, Q55R, S93R, N94L, P96L, Q100G
B4: CD40L-372 (antibody, V domains shown)
VH: EVQLLESGGGLVQPGGSLRLSCAASGFTFTSYAMTWVRQAPGKGLEWVSSITSSGGSTYYADSVKGRFTISRDNSKNTLYLQMNSLRAEDTAVYYCARAHDYDSMLMDYWGQGTLVTVSS
VL: B2 VL with S30R, T31S, R50A, A51T, T53S, Q55H, L78M, Y92F, N94L, Q100G
B5: CD40L-437 (antibody, V domains shown)
VH: EVQLLESGGGLVQPGGSLRLSCAASGFSFSSYAMAWVRQAPGKGLEWVSSISGSGGGGNTYYADSVKGRFTISRDNSKNTLYLQMNSLRAEDTAVYYCARHHERDYYGMDVWGQGTLVTVSS
VL: B2 VL with S28T, T31N, Y32F, R50A, S56Y, S91T, N94F, P96L, Q100G
B6: CD40L-349 (antibody, V domains shown)
VH: EVQLLESGGGLVQPGGSLRLSCAASGFGFSSYAMSWVRQAPGKGLEWVSAISGGGGSIYYADSVKGRFTISRDNSKNTLYLQMNSLRAEDTAVYYCATDYGDYDRLNFDLWGQGTLVTVSS
VL: B2 VL with S28T, S30G, T31S, R50A, S56P, S93E, N94T, P96L, Q100G
B7: CD40L-380 (antibody, V domains shown)
VH: B4 VH with T28G, T30S, T35S, S50A, T52S, S53G, S54G, T58I
VL: B2 VL with I29V, T31R, Y32F, R50A, S56P, S93E, N94T, P96L, Q100G
B8: CD40L-360 (antibody, V domains shown)
VH: EVQLLESGGGLVQPGGSLRLSCAASGFTFGRYAMSWVRQAPGKGLEWVSDISGSGGSTYYADSVKGRFTISRDNSKNTLYLQMNSLRAEDTAVYYCARDGFRWGRAEYFQHWGQGTLVTVSS
VL: B2 VL with S28T, T31S, N34S, R50D, S93R, N94I, P96L, Q100G
B9: CD40L-348 (antibody, V domains shown)
VH: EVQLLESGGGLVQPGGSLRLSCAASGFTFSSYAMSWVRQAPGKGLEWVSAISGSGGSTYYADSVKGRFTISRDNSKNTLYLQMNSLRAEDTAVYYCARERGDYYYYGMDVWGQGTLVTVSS
VL: B2 VL with S28T, T31N, Y32F, R50A, S56Y, S91N, S93R, N94S, P96L, Q100G
B10: CD40L-362 (antibody, V domains shown)
VH: EVQLLESGGGLVQPGGSLRLSCAASGFTFTSYAMSWVRQAPGKGLEWVSGISGSGINTYYADSVKGRFTISRDNSRNTLYLQMNSLRAEDTAVYYCVRSSWSDVWGQGTLVTVSS
VL: B2 VL with S28N, S30I, T31N, R50G, Q55E, N94V, P96L, Q100G
B11: CD40L-364 (antibody, V domains shown)
VH: EVQLLESGGGLVQPGGSLRLSCAASGFTFSPYAMSWVRQAPGKGLEWVSSITGTGGSTYYADSVKGRFTISRDNSKNTLYLQMNSLRAEDTAVYYCARSWASEDFDWLPNFDFWGQGTLVTVSS
VL: B2 VL with A25V, T31S, N34H, R50A, T53S, S56T, S93T, N94L, P96L, Q100G
B12: CD40L-365 (antibody, V domains shown)
VH: EVQLLESGGGLVQPGGSLRLSCAASGFTFSYYAMTWVRQAPGKGLEWVSGISGSGGSSYYADSVKGRFTISRDNSKNTLYLQMNSLRAEDTAVYYCARSHDYDRQTFDYWGQGTLVTVSS
VL: B2 VL with S30A, N34H, R50S, Q55E, S93R, N94P, P96L, Q100G
B13: CD40L-347 (antibody, V domains shown)
VH: B4 VH with T30S, S31N, T35S, S50A, S53G, G56S, S57T
VL: B2 VL with S30G, Y32F, R50G, A51T, T53N, S91G, S93R, N94T, P96L, Q100G
B14: CD40L-376 (antibody, V domains shown)
VH: B12 VH with Y31S, T35S, G50A, G53A, S57T, S58T
VL: B2 VL with Y32F, N34S, R50A, A51T, Q55E, N94T, P96L, Q100G
B15: CD40L-366 (antibody, V domains shown)
VH: B4 VH with T28G, T30S, T35S, S50A, S53G, G56S, S57T
VL: B2 VL with I29V, T31R, Y32F, R50A, S56P, S93E, N94T, P96L, Q100G
B16: CD40L-359 (antibody, V domains shown)
VH: EVQLLESGGGLVQPGGSLRLSCAASGYTFSSYAMSWVRQAPGKGLEWVSGISGGGTSTYYADSVKGRFTISRDNSKNTLYLQMNSLRAEDTAVYYCARFGNHYDRTGYSDYWGQGTLVTVSS
VL: B2 VL with S28N, S30G, T31G, R50G, T53R, N94T, P96F, Q100G
B17: CD40L-358 (antibody, V domains shown)
VH: EVQLLESGGGLVQPGGSLRLSCAASGFTFSTYAMNWVRQAPGKGLEWVSAISGSGGTTYYADSVKGRFTISRDNSKNTLYLQMNSLRAEDTAVYYCARGPNNWNYVSFDYWGQGTLVTVSS
VL: B2 VL with S28Y, S30G, R50A, S52A, T53N, N94I, P96L, Q100G
B18: CD40L-429 (antibody, V domains shown)
VH: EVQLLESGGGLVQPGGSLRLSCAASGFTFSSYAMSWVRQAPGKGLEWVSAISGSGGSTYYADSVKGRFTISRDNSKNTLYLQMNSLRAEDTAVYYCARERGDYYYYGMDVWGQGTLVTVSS
VL: B2 VL with S28T, T31Y, R50D, S52T, T53S, S91T, N94L, P96L, Q100G
B19: CD40L-386 (antibody, V domains shown)
VH: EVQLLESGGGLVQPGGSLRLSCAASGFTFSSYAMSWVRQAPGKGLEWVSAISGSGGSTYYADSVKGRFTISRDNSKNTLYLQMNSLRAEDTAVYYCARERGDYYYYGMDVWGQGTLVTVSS
VL: B2 VL with Q27E, S30T, R50T, T53G, S93T, N94V, P96I, Q100G
B20: CD40L-345 (antibody, V domains shown)
VH: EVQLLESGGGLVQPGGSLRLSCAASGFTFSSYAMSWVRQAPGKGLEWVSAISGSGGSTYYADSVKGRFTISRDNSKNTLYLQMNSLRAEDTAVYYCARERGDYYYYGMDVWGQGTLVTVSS
VL: B2 VL with S28T, T31N, Y32F, R50A, S56Y, S91N, S93R, N94S, P96L
B21: CD40L-396 (antibody, V domains shown)
VH: B5 VH
VL: B2 VL with S28R, T31R, Y92H, N94S, P96L, Q100G
B22: CD40L-418 (antibody, V domains shown)
VH: B8 VH
VL: B2 VL with Q27E, S30T, R50T, T53G, S93T, N94V, P96I, Q100G
B23: CD40L-404 (antibody, V domains shown)
VH: EVQLLESGGGLVQPGGSLRLSCAASGFTFRTYAMGWVRQAPGKGLEWVSAISGSGGIAYYADSVKGRFTISRDNSKNTLYLQMNSLRAEDTAVYYCARHYYYDSSDAFDIWGQGTLVTISS
VL: B2 VL with S28T, T31Y, R50D, S52T, T53S, S91T, N94L, P96L, Q100G
B24: CD40L-354 (antibody, V domains shown)
VH: B5 VH
VL: B2 VL with S30G, T31E, R50S, T53S, S56N, S91T, N94F, P96L, Q100G
B25: CD40L-378 (antibody, V domains shown)
VH: B2 VH
VL: B2 VL with Q100G
B26: CD40L-373 (antibody, V domains shown)
VH: B23 VH
VL: B2 VL with A25G, T31S, Y32F, R50A, T53K, Q55H, Q90H, N94T, P96L, Q100G
B27: CD40L-371 (antibody, V domains shown)
VH: EVQLLESGGGLVQPGGSLRLSCAASGFTSNIYAMSWVRQAPGKGLEWVSAISGSGFSTYYADSVKGRFTISRDNSKNTLYLQMNSLRAEDTAVYYCAKLAQNYGDPDAFDIWGQGTLVTVSS
VL: DIQMTQSPSSLSASVGDRVTITCRASQSISKYLNWYQQKPGKAPKLLIYAATSLESGVPSRFSGSGSGTDFTLTISSLQPEDFATYYCQQSYSTPLFTFGGGTKVEIK
B28: CD40L-350 (antibody, V domains shown)
VH: EVQLLESGGGLVQPGGSLRLSCAASGLTFGSYAMSWVRQAPGKGLEWVSAISGSVGSTYYADSVKGRFTISRDNSKNTLYLQMNSLRAEDTAVYYCARHGGYYYYYMDVWGQGTLVTVSS
VL: DIQMTQSPSSLSASVGDRVTITCRASQSISSYVSWYQQKPGKAPKLLIYDASSLSGGVPSRFSGSGSGTDFTLTISSLQPEDFATYYCQQSYRIPLTFGGGTKVEIK

Target: T1, CD40L
Experiment: flow cytometry, 100 nM IgG, CD40L over-expressing Expi293 cells over parent Expi293 cells
Method: All incubations and washes were in buffer containing PBS+1% BSA. MFI Ratio is defined by the mean fluorescence intensity (MFI) of the cytokine over-expressing Expi293 cell over the Expi293 parent cell. […] EC50 was calculated in GraphPad Prism.

Binder	100 nM FACS (MFI Ratio) [MFI ratio]
B1	3
B2	125
B3	7.6
B4	8.5
B5	4.3
B6	5.8
B7	8.4
B8	15.4
B9	6.2
B10	1060
B11	6.8
B12	4.6
B13	11.6
B14	13.5
B15	43
B16	5.1
B17	4.2
B18	5
B19	1.6
B20	7.7
B21	6.2
B22	3.6
B23	7.1
B24	6.9
B25	8.1
B26	1.7
B27	3.5
B28	66.4
